According to patent US20190241662A1 (ADAGENE, published 2019):
Changes are numbered by the printed parent chain.

T1: recombinant human CTLA4 fused with human Fc and His tag (human, UniProt P16410 36-162, limits assumed)
T1 construct: Coated in the CD80 ELISA, biotinylated and in solution in the CD86 ELISA; also called biotinylated human CTLA4 fused with human FC and His tag
T1 sequence (looked up): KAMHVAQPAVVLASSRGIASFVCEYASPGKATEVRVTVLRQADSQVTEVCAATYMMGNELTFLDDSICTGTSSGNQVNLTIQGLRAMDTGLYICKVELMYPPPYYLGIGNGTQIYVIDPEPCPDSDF

T2: full-length human CTLA4 expressed on cells (human, UniProt P16410 36-223)
T2 sequence (looked up): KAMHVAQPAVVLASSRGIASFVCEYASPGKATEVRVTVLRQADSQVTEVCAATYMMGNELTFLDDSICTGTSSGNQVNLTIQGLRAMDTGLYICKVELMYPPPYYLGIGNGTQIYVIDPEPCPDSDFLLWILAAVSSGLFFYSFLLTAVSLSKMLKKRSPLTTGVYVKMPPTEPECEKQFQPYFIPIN

T3: human LAG3 on HEK293F cells (human, UniProt P18627 23-525)
T3 construct: whole, on cells
T3 sequence (looked up): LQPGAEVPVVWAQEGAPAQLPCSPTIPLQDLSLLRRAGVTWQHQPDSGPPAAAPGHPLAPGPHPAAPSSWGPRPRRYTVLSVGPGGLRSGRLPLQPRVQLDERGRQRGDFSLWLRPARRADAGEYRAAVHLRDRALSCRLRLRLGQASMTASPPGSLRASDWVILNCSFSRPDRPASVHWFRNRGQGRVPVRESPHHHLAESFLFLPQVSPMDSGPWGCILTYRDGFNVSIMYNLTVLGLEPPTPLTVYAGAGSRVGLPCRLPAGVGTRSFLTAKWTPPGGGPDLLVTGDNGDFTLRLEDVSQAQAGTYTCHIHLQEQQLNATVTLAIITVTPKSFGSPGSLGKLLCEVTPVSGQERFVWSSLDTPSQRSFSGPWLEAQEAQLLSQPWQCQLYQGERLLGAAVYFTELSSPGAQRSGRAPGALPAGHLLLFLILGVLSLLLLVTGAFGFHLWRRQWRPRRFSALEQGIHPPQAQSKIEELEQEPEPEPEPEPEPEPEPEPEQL

T4: human B7H3 on HEK293F cells (human, UniProt Q5ZPR3 29-534)
T4 construct: whole, on cells
T4 sequence (looked up): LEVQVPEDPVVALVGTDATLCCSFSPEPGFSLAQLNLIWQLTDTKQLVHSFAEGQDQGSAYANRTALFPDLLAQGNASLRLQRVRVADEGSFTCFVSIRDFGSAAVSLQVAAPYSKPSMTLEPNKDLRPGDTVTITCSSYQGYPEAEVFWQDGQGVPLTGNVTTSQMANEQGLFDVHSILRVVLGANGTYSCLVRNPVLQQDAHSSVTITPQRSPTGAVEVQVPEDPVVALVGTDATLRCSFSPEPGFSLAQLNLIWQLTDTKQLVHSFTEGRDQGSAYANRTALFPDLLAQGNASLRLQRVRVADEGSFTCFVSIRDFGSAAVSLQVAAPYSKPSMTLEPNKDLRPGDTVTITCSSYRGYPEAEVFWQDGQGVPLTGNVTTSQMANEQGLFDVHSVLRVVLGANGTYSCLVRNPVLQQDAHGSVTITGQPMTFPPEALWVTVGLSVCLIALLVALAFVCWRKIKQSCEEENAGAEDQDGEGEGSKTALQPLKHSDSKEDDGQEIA

T5: human Tim3 on HEK293F cells (human, UniProt Q8TDQ0 22-301)
T5 construct: whole, on cells
T5 sequence (looked up): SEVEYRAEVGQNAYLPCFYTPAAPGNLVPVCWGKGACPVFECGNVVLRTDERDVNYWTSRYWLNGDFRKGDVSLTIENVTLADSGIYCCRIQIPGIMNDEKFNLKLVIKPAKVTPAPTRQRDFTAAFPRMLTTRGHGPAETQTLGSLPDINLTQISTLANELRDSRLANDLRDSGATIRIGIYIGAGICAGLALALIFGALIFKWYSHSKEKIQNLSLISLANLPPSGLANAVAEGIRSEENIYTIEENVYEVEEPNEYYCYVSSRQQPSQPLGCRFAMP

B1: TY21691 (antibody, V domains shown)
VH: EVQLVESGGGLVQPGGSLRLSCAASGFTFSDYAIHWVRQAPGKGLEWIGIISPSGGSTKYAQKFQGRVTISRDNSKNTLYLQLNSLRAEDTAVYYCARLGYGYFDVWGQGTLVTVSS
VL: DIQLTQSPSSLSASVGDRVTITCRASQSVDFYGISFLHWYQQKPGKAPKLLIYDASSLESGVPSRFSGSGSGTDFTLTISSLQPEDFATYYCVQALQLPLTFGQGTKVEIK
notes: human IgG1 (hIgG1) from Fab hit B15736
B2: TY21687 (antibody, V domains shown)
VH: EVQLVESGGGLVQPGGSLRLSCAASGFTFSGYAIHWVRQAPGKGLEWIGIISPSGGGTKYAQKFQGRVTISRDNSKNTLYLQLNSLRAEDTAVYYCARHPFAYWGQGTLVTVSS
VL: DIQLTQSPSSLSASVGDRVTITCRASQSVDFYGISFLDWYQQKPGKAPKLLIYDASNRATGIPSRFSGSGSGTDFTLTISSLQPEDFATYYCQQYVSSPPEYTFGQGTKVEIK
notes: human IgG1 (hIgG1) from Fab hit B15700
B3: TY21585 (antibody, V domains shown)
VH: EVQLVESGGGLVQPGGSLRLSCAASGFTFSDYAIHWVRQAPGKGLEWIGIISPSSGSTNYAQKFQGRVTISRDNSKNTLYLQLNSLRAEDTAVYYCARDIHSGSSGYYYGFDVWGQGTLVTVSS
VL: B2 VL with Q27E, Y32F, D38A, Q94H, V96T, E101V
notes: human IgG1 (hIgG1) from Fab hit B15709
B4: TY21591 (antibody, V domains shown)
VH: EVQLVESGGGLVQPGGSLRLSCAASGFSLSTGGVAVSWIRQAPGKGLEWIGEIYHSGSTYYSPSLKSRVTISRDNSKNTLYLQLNSLRAEDTAVYYCARRIATATYFDYWGQGTLVTVSS
VL: DIQLTQSPSSLSASVGDRVTITCRASQTVFSRYLAWYQQKPGKAPKLLIYDASNRATGIPSRFSGSGSGTDFTLTISSLQPEDFATYYCQQSYYWPPWTFGQGTKVEIK
notes: human IgG1 (hIgG1) from Fab hit B15756

Legend:
[1] = molecular target: T1, recombinant human CTLA4 fused with …; assay: competition ELISA: plate-bound human CD86-Fc, biotinylated human CTLA4-Fc-His in solution
Procedure: Plates were blocked with PBS supplemented with 2% (w/v) skim milk at 37° C. for 1 hour. […] Plates were washed four times, and 100 μL HRP-neutravidin (1:1000) were added to each well and incubated at 37° C. for 1 hr. Plates were washed as previously described, and 50 μL TMB substrate solution was added and incubated at room temperature for 5 minutes before the reaction was stopped by 50 μL sulfate acid (2M).

[2] = molecular target: T2, full-length human CTLA4 expressed on …; assay: cell-based or functional assay
[3] = molecular target: T2, full-length human CTLA4 expressed on …; assay: cell-based or functional assay; remark: listed apart in the source
[4] = molecular target: T3, human LAG3 on HEK293F cells; assay: flow cytometry, transfected HEK293F cells
Procedure: (§1) Antibody selectivity was next examined. Human CTLA4, PD1, LAG3, Tim3, B7H3, CD95, TNFR1, OX40, CD40, PD-L1, BLTA, VISTA, PDL2, ICOS and B7H4 were transiently overexpressed on the surface of HEK293F cells. Transfected cells were washed in pre-chilled 1×PBSA buffer (1.76 mM KH2PO4, 10.14 mM Na2HPO4.12H2O, 2.68 mM KCl, 136.89 mM NaCl and 1% BSA), then incubated with 100 nM test antibodies for 1 hour on ice. Cells were washed once with staining buffer, and Alexa Fluor® 647 conjugated mouse anti-human FC antibodies were added and incubated for 30 minutes on ice, protected from light. Samples were washed once with staining buffer prior to analysis by flow cytometry.

[5] = molecular target: T6, human PD1 on HEK293F cells (human, UniProt Q15116 25-288); assay: flow cytometry, transfected HEK293F cells
T6 construct: whole, on cells
T6 sequence (Q15116 25-288): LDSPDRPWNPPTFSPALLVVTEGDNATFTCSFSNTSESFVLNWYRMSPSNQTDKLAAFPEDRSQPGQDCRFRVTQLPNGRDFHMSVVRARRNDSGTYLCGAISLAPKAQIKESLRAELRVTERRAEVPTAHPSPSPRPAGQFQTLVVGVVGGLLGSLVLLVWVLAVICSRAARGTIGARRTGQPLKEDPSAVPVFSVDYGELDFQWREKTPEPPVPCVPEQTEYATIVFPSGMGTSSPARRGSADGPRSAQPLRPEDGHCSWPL
Procedure: as §1

[6] = molecular target: T4, human B7H3 on HEK293F cells; assay: flow cytometry, transfected HEK293F cells [Cont.]
Procedure: as §1

[7] = molecular target: T5, human Tim3 on HEK293F cells; assay: flow cytometry, transfected HEK293F cells [Cont.]
Procedure: as §1

[8] = molecular target: T2, full-length human CTLA4 expressed on …; assay: flow cytometry, transfected HEK293F cells, 100 nM antibody [Cont.]
Procedure: as §1

[9] = molecular target: T7, human CD40 on HEK293F cells (human, UniProt P25942 21-277); assay: flow cytometry, transfected HEK293F cells [Cont.]
T7 construct: whole, on cells
T7 sequence (P25942 21-277): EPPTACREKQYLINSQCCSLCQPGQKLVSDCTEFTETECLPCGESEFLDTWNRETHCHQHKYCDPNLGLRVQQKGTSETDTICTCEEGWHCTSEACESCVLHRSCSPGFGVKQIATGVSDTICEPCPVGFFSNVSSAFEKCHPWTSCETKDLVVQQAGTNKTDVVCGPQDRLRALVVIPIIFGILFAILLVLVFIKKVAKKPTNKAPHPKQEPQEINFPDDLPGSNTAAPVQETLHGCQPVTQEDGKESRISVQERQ
Procedure: as §1

Row | Binder | IC50 (read off the curve) [1] [nM] | EC50 for ADCC reporter signaling (Jurkat/NFAT-Luc/CD16 with HEK293F/hCTLA4 cells) [2] [µg/mL] | EC50 for TCR/CD28 pathway activation (luciferase reporter, CTLA4 blockade bioassay) [3] [µg/mL] | binding result [4] | binding result [5] | binding result [6] | binding result [7] | % of cells in upper right quadrant (Q2) [8] | binding result [9] | Mean [8]
1 | B1 | ~20 | > 10 | 2.64 | no binding (tested: 100 nM) | no binding (tested: 100 nM) |  |  |  |  | 
2 | B2 | ~10 | 9.5 | 5.01 |  |  | no binding (tested: 100 nM) | no binding (tested: 100 nM) | 75.7% |  | 
3 | B3 |  |  |  | no binding (tested: 100 nM) | no binding (tested: 100 nM) | no binding (tested: 100 nM) | no binding (tested: 100 nM) | 36.3 | no binding (tested: 100 nM) | 6190
4 | B4 |  |  |  |  |  |  |  |  | no binding (tested: 100 nM) | 
